The data set has as its system DctD2 D57Q (d-DctD2 mimic) (Vibrio vulnificus). Put plainly: EMSA. Conditions: EMSA: 50 mM Tris-HCl pH 8.0, 20 mM KCl, 50 mM MgCl2 (so in the source), 100 mM NaCl; approx. 50 nM 32P-labeled probe; 6% native PAGE; temperature not stated. A general note: A gel shift assay detects complexes by their altered migration in electrophoresis.

Take “EPS-II cluster regulatory region probe (480 bp)”: the binding is > 700 nM.
